This note sets out measurements from paper PMC2770657.

Assay in all cases: EMSA
For orientation: In EMSA bound probe runs differently from free probe, usually more slowly.

In one data set the target is T1, hPifHD E307Q (Homo sapiens, UniProt Q9H611 206-620, E307Q).
T1 sequence: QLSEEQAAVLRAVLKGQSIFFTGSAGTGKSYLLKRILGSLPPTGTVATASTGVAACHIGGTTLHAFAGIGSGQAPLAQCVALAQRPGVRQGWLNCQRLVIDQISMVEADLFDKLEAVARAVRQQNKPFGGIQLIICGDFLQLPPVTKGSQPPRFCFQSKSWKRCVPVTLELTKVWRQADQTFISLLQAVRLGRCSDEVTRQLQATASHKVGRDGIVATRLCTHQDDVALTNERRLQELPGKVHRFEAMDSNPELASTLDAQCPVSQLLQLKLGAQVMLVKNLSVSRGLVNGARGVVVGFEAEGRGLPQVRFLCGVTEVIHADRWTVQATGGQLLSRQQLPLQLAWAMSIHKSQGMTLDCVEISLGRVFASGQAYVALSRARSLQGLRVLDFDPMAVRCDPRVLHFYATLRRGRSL

Data set [1] deals with T2, hPifHD (human Pif1 helicase domain) (Homo sapiens, UniProt Q9H611 206-620).
T2 sequence: T1 sequence with Q102E

For data set [2], the target named is T2, hPifHD (human Pif1 helicase domain). The source holds these as a separate data set.

Changes are numbered by the printed parent chain. Read-outs that look alike come from different tables or passages of the source.

B1: T55 (ssDNA)
DNA: TTTTTTTTTTTTTTTTTTTTTTTTTTTTTTTTTTTTTTTTTTTTTTTTTTTTTTT
Turning to B1, the binding result with hPifHD E307Q is reported as “binds”.

For TTTTTTTTTTTTTTTTTTTTTTTTTTTTTTTTTTT (ssDNA) [T35], the binding result in data set [1] was “binds”.

Turning to TTTTTTTTTTTTTTTTTTTTTTTTT (ssDNA) [T25], in data set [2], the binding result is listed as “no binding”.

On to TTTTTTTTTTTTTTTTTTTTTTTTTTTTTTTTTTTTTTTTTTTTTTTTTT (ssDNA) [T50], for which the binding result in data set [1] is listed as “binds”.
